Data as given in patent publication US6127119, “Nucleic acid ligands of tissue target” (NeXstar Pharmaceuticals, Inc.).

molecular target: Fibrin (human plasma clot) (Homo sapiens, UniProt P02671-2;P02675;P02679-2 P02671-2:36-644,P02675:45-491,P02679-2:27-437); assay: competition; homogenized plasma clot, Scatchard high-affinity component; conditions: tags: clot from recalcified plasma, complex target; chain copies: 2
Protocol: The two best binders in the PE model which had the lowest affinity for fibrinogen were pursued. Both of these clones resided in Motif II. Clone 69 (SEQ ID NO: 55) was analyzed for binding in vitro homogenized clot. By adding a fixed amount of radiolabeled clone 69 (2 nM) to a fixed amount of clot (200 μliters plasma equivalent) with increasing amount of non-radiolabeled ligand, binding could be quantitated. Analyzing data in a Scatchard format yield a two-component curve with high and low affinity binding components. […] These sites were saturable. […] As such it appears that the binding of a specific ligand to clots is specific and stable.

Chain of Fibrin (human plasma clot) (P02671 other isoform, or with tags, fused parts or gaps, chain 1 of 3): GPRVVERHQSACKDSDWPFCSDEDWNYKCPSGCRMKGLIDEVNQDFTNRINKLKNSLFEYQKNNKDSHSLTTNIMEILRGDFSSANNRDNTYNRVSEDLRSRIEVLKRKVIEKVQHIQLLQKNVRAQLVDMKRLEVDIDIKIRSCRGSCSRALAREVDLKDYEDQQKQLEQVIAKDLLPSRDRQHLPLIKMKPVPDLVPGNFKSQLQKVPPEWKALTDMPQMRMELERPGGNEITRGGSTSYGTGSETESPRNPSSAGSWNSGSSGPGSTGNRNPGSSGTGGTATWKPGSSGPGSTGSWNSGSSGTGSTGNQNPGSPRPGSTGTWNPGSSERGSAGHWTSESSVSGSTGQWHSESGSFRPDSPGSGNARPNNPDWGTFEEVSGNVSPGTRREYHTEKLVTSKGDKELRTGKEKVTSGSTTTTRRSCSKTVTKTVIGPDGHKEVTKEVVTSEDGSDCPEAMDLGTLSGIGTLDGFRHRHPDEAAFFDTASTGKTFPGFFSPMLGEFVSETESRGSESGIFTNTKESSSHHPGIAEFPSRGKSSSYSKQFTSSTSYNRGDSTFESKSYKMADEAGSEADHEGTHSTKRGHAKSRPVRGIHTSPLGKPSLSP
Chain of Fibrin (human plasma clot) (P02675 45-491, chain 2 of 3): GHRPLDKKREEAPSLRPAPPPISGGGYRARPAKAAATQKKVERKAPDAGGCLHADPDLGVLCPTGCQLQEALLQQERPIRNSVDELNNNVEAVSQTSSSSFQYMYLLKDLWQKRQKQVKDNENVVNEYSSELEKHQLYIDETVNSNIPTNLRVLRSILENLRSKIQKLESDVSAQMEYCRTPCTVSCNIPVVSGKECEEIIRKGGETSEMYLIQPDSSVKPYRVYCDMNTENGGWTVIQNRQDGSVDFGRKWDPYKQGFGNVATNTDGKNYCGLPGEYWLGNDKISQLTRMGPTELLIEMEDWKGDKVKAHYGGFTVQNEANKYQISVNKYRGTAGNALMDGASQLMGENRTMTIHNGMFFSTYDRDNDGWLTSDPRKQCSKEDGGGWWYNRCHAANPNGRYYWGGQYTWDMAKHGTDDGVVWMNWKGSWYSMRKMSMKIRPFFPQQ
Chain of Fibrin (human plasma clot) (P02679 other isoform, or with tags, fused parts or gaps, chain 3 of 3): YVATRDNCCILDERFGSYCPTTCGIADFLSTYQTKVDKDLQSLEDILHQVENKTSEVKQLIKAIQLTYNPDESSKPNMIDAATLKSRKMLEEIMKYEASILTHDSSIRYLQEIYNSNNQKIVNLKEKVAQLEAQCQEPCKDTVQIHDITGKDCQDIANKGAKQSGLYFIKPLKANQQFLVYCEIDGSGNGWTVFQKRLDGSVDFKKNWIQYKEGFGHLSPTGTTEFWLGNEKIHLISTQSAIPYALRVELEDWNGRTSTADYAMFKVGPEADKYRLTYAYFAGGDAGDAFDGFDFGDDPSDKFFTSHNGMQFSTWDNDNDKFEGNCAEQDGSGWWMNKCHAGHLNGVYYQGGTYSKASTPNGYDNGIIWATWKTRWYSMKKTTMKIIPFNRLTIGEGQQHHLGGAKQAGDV

Binder	Kd
FC69 (ssRNA, 2'-F pyrimidines) RNA: GGGAGAUAAGAAUAAACGCUCAAACAAAUGUGCGCCCUUGGACGAAGUUAACUCGGACGGUUCUUCGACAGGAGGCUCACAACAGGC	14.1 nM

molecular target: T1, Fibrinogen (Homo sapiens, UniProt P02671-2;P02675;P02679-2 P02671-2:20-644,P02675:31-491,P02679-2:27-437); assay: filter; moderate fibrinogen affinity; conditions: chain copies: 2
T1 sequence (P02671 other isoform, or with tags, fused parts or gaps, chain 1 of 3): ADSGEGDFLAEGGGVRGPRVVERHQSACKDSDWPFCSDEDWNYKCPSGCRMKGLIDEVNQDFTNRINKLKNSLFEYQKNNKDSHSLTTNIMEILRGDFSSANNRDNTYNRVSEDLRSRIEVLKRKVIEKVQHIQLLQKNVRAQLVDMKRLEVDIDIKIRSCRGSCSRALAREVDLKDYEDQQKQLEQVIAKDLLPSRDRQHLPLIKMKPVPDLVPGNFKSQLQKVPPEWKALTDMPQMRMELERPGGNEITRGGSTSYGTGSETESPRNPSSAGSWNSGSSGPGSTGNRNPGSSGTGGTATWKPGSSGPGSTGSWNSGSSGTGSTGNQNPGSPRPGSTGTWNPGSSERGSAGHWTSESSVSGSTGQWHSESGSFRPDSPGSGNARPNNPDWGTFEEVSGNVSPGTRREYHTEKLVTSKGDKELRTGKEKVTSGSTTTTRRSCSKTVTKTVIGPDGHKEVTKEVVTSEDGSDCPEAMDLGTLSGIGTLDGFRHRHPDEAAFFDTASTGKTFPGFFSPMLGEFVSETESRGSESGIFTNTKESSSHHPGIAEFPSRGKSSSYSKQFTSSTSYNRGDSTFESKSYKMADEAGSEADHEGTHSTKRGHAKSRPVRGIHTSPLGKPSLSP
T1 sequence (P02675 31-491, chain 2 of 3): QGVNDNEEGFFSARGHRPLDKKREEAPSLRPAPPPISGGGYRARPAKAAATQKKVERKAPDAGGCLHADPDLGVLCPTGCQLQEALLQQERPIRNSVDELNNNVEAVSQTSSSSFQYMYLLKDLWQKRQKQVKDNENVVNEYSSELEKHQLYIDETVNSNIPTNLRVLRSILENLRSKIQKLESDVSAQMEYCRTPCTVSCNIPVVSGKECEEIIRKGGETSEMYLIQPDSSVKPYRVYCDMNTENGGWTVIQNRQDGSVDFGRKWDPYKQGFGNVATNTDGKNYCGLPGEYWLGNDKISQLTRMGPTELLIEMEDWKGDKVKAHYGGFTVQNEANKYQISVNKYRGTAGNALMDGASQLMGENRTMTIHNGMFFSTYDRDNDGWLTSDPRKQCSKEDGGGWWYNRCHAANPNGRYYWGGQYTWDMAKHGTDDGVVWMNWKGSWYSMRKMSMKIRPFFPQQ
T1 sequence (P02679 other isoform, or with tags, fused parts or gaps, chain 3 of 3): as the sequence (P02679 other isoform, or with tags, fused parts or gaps, chain 3 of 3) above

Binder	binding result
FCN31 (ssRNA, 2'-F pyrimidines) RNA: GGGAGAUAAGAAUAAACGCUCAAUCUGUUGGUUCAAAGACUUGCUAAGGGGUCGAAGCACCCUUUCGACAGGAGGCUCACAACAGGC	binds
FCN24 (ssRNA, 2'-F pyrimidines) RNA: GGGAGAUAAGAAUAAACGCUCAAAUGAGUAGACCGAGGAAGCACCCGGCUCUCAAAUGAGUGAUUCGACAGGAGGCUCACAACAGGC	binds
FCN64 (ssRNA, 2'-F pyrimidines) RNA: GGGAGAUAAGAAUAAACGCUCAAAUGAGUAGACCGAGGAAGCACCCGGCUCUCAAAUGACUGAUUCGACAGGAGGCUCACAACAGGC	binds
FCN36 (ssRNA, 2'-F pyrimidines) RNA: GGGAGAUAAGAAUAAACGCUCAAAGCAGAUGGUGCUGAGGUAUCAUGAAGACGCUGACGCUUAUUCGACAGGAGGCUCACAACAGGC	binds
FCN50 (ssRNA, 2'-F pyrimidines) RNA: GGGAGAUAAGAAUAAACGCUCAAGAAUGGAGCCAGGAAAGACAGCGAUGUCUCGGACGAUGAGUUCGACAGGAGGCUCACAACAGGC	binds
FCN48 (ssRNA, 2'-F pyrimidines) RNA: GGGAGAUAAGAAUAAACGCUCAAGAUAUACUAACUUUGUUUGAAAGCCAAAAGUAUUAAUGCGUUCGACAGGAGGCUCACAACAGGC	binds

molecular target: T1, Fibrinogen; assay: filter; low class; printed l mM, probably uM; conditions: chain copies: 2

Binder	Kd
FCN54 (ssRNA, 2'-F pyrimidines) RNA: GGGAGAUAAGAAUAAACGCUCAACUGGGCUCAUCCGGCGAAUGAUGCAAGGAAGAUUUCACAUUUCGACAGGAGGCUCACAACAGGC	> 1000 nM
FCN6 (ssRNA, 2'-F pyrimidines) RNA: GGGAGAUAAGAAUAAACGCUCAACAACGAUUAUCUUUUCGGCCGUGAAACCCAAACUGACGCCUUCGACAGGAGGCUCACAACAGGC	> 1000 nM
FCN59 (ssRNA, 2'-F pyrimidines) RNA: GGGAGAUAAGAAUAAACGCUCAAAUGAUGCUCCUGAAGUAAUCACCAGGACAUCCUCGGCAUUUCGACAGGAGGCUCACAACAGGC	> 1000 nM
FC9 (ssRNA, 2'-F pyrimidines) RNA: GGGAGAUAAGAAUAAACGCUCAAGCAAUCUCGGACUAGACCAACGACCUUCGUUUGACGCUCAUUCGACAGGAGGCUCACAACAGGC	> 1000 nM
FCN18 (ssRNA, 2'-F pyrimidines) RNA: GGGAGAUAAGAAUAAACGCUCAAAUGAACGACCGCGGGCAGUCGCGUUCAAAUGAGUGGUUUUUUCGACAGGAGGCUCACAACAGGC	> 1000 nM
FC34 (ssRNA, 2'-F pyrimidines) RNA: GGGAGAUAAGAAUAAACGCUCAAAAGGCCGAACAACGAAGUUUGAUUCAGGUACUCAGCGUUCUUCGACAGGAGGCUCACAACAGGC	> 1000 nM
FCN13 (ssRNA, 2'-F pyrimidines) RNA: GGGAGAUAAGAAUAAACGCUCAACGUGAUGACAGCUCGGACGGCUCAUUGCGCGGAGUAGCUAUUCGACAGGAGGCUCACAACAGGC	> 1000 nM
FCN56 (ssRNA, 2'-F pyrimidines) RNA: GGGAGAUAAGAAUAAACGCUCAACGGCUCGAUGCUAGCUGGGACGGCUCAUUGAGACUGGUUGUUCGACAGGAGGCUCACAACAGGC	> 1000 nM
FCN49 (ssRNA, 2'-F pyrimidines) RNA: GGGAGAUAAGAAUAAACGCUCAAGAAUGGAGCCAAGAAAGACAGCGAUGUCUCGGACGAUGAGUUCGACAGGAGGCUCACAACAGGC	> 1000 nM
FCN58 (ssRNA, 2'-F pyrimidines) RNA: GGGAGAUAAGAAUAAACGCUCAAGGAUGGAGCCAAGAAAGACAGCGAUGUCUCGGACGAUGAGUUCGACAGGAGGCUCACAACAGGC	> 1000 nM
FCN69 (ssRNA, 2'-F pyrimidines) RNA: GGGAGAUAAGAAUAAACGCUCAAGAUUGACACGCACUCCAAUGGCUCUGAAGUGUUCGUGUGCUUCGACAGGAGGCUCACAACAGGC	> 1000 nM
FCN27 (ssRNA, 2'-F pyrimidines) RNA: GGGAGAUAAGAAUAAACGCUCAAAAAGUCGUGUGCGAGAGGCUCAGAUUUAAUGCGGAGGAUUCGACAGGAGGCUCACAACAGGC	> 1000 nM
FCN9 (ssRNA, 2'-F pyrimidines) RNA: GGGAGAUAAGAAUAAACGCUCAACGUUGAAAUCGCUCCUCAGUGUGAGUUGAAUCAGCUGACCUUCGACAGGAGGCUCACAACAGGC	> 1000 nM
FCN21 (ssRNA, 2'-F pyrimidines) RNA: GGGAGAUAAGAAUAAACGCUCAAAGUUUGGAUUCGGCAGGUGCUGAGACUUUGAUAGCCACUAUUCGACAGGAGGCUCACAACAGGC	> 1000 nM
FCN22 (ssRNA, 2'-F pyrimidines) RNA: GGGAGAUAAGAAUAAACGCUCAAGUGAGAAAUGUCGGGGGCGAUGACUUGGACGGUCCACCGUUCGACAGGAGGCUCACAACAGGC	> 1000 nM
FCN12 (ssRNA, 2'-F pyrimidines) RNA: GGGAGAUAAGAAUAAACGCUCAAAGAGAGGAACUGCGAUUCAGACCAAAACGGAAAUGGCUGUUUCGACAGGAGGCUCACAACAGGC	> 1000 nM
FCN25 (ssRNA, 2'-F pyrimidines) RNA: GGGAGAUAAGAAUAAACGCUCAAGAUAUACUAACUUUCUUUGAAAGCCAAAAGUAUUAAUGCGUUCGACAGGAGGCUCACAACAGGC	> 1000 nM
FCN52 (ssRNA, 2'-F pyrimidines) RNA: GGGAGAUAAGAAUAAACGCUCAAAGCCGAGCUAAUCCCGAAAGUGACCCGGAACGACGCGGCAUUCGACAGGAGGCUCACAACAGGC	> 1000 nM

molecular target: T1, Fibrinogen; assay: filter; high class; printed l mM, probably uM; conditions: chain copies: 2

Binder	Kd
FCN65 (ssRNA, 2'-F pyrimidines) RNA: GGGAGAUAAGAAUAAACGCUCAAAGCGCUAGAUGGACGAGAGACUUUUAAGUAGCAAGCGGUAUUCGACAGGAGGCUCACAACAGGC	< 1000 nM
FC10 (ssRNA, 2'-F pyrimidines) RNA: GGGAGAUAAGAAUAAACGCUCAACAGACUCAGAGCGCCGUGAGCUUCUGAAGCAAUCGCAGGUUUCGACAGGAGGCUCACAACAGGC	< 1000 nM
FC53 (ssRNA, 2'-F pyrimidines) RNA: GGGAGAUAAGAAUAAACGCUCAAGCGGGGAGCUCCUCGAGAAACUGAGUUCAACUUCCCAGGUUUCGACAGGAGGCUCACAACAGGC	< 1000 nM
FC14 (ssRNA, 2'-F pyrimidines) RNA: GGGAGAUAAGAAUAAACGCUCAAGUGUUGGAGCUCUUGAUUGGAAAAGUAGAACAAAUCGAAAUUCGACAGGAGGCUCACAACAGGC	< 1000 nM
FC30 (ssRNA, 2'-F pyrimidines) RNA: GGGAGAUAAGAAUAAACGCUCAAGUGUUGGAGCUCUUGAUUGGAAAAUUAGAGCAAAUCGAAAUUCGACAGGAGGCUCACAACAGGC	< 1000 nM
FC70 (ssRNA, 2'-F pyrimidines) RNA: GGGAGAUAAGAAUAAACGCUCAAGUGUUGGAGCUCUUGAUUGGAAAAGUAGAGCAAAACGAAAUUCGACAGGAGGCUCACAACAGGC	< 1000 nM
FC74 (ssRNA, 2'-F pyrimidines) RNA: GGGAGAUAAGAAUAAACGCUCAAGUGUUGGAGCUCUUGAUUGGAAAAGUAGAGCAAAUCGAAAUUCGACAGGAGGCUCACAACAGGC	< 1000 nM
FCN26 (ssRNA, 2'-F pyrimidines) RNA: GGGAGAUAAGAAUAAACGCUCAAUCCAAGGACCAAACGGGUGUUCGGCAGUGGACUUUAGCAAUUCGACAGGAGGCUCACAACAGGC	< 1000 nM
FCN28 (ssRNA, 2'-F pyrimidines) RNA: GGGAGAUAAGAAUAAACGCUCAAUGGGCUACAUGUGAGUACACCAGCGUGAGAGUUCUUAGGUUCGACAGGAGGCUCACAACAGGC	< 1000 nM
FCN29 (ssRNA, 2'-F pyrimidines) RNA: GGGAGAUAAGAAUAAACGCUCAACUGUGCAGUAACUGCGGAUGAGACCAACCGGAUGGCUCAACUUCGACAGGAGGCUCACAACAGGC	< 1000 nM
FCN57 (ssRNA, 2'-F pyrimidines) RNA: GGGAGAUAAGAAUAAACGCUCAAACAAUCUCGGACUAGACUAACGACCUUCGUUUGACGCUUAUUCGACAGGAGGCUCACAACAGGC	< 1000 nM
FCN61 (ssRNA, 2'-F pyrimidines) RNA: GGGAGAUAAGAAUAAACGCUCAAGCAAUCUCGGACGAGACUAACGACCUUCGUUUGACGCUUAUUCGACAGGAGGCUCACAACAGGC	< 1000 nM
